Like-named read-outs stand apart in the source and are kept apart here. Each block holds one binder with its values, some of them ahead of it.
Legend:
DR3 (ECD)-Fc = biological target: T1, DR3 (ECD)-Fc (human); experiment: HX-MS with hDR3 ECD-Fc
T1 construct: ECD of DR3, a linker with a TEV cleavage site and the Fc part of human IgG4; dimeric fraction used; also called DR3-Fc; hDR3-Fc
Experimental: The Leap robot was equipped with two temperature controlled stacks maintained at 20° C. for buffer storage and HX reactions and maintained at 2° C. for storage of protein and quench solution, respectively. The Waters HDX system furthermore contained a temperature controlled chamber holding the pre- and analytical columns, and the LC tubing and switching valves at 1° C. A separately temperature controlled chamber holds the pepsin column at 25° C. […] The resulting peptides were trapped and desalted on a VanGuard pre-column BEH C18 1.7 μm (2.1×5 mm (Waters Inc.)). Subsequently, the valves were switched to place the pre-column inline with the analytical column, UPLC-BEH C18 1.7 μm (1×100 mm (Waters Inc.)), and the peptides separated using a 9 min gradient of 10-40% B delivered at 200 μl/min from the nanoAQUITY UPLC system (Waters Inc.). The mobile phases consisted of A: 0.1% formic acid and B: 0.1% formic acid in CH₃CN. The ESI MS data, and the separate elevated energy (MS^E) experiments were acquired in positive ion mode using a Synapt G2 mass spectrometer (Waters Inc.).
All HX reactions were carried out at 20° C. and contained […] hDR3 in the absence or presence of […] Fab thus giving a 5 fold molar excess of Fab. […]

[1] = biological target: T2, human DR3 (full length, on cells) (human, UniProt Q93038 25-417); experiment: flow cytometry on CD3/CD28-stimulated human CD4+ T cells
T2 construct: also called hDR3; Death Receptor 3
T2 sequence: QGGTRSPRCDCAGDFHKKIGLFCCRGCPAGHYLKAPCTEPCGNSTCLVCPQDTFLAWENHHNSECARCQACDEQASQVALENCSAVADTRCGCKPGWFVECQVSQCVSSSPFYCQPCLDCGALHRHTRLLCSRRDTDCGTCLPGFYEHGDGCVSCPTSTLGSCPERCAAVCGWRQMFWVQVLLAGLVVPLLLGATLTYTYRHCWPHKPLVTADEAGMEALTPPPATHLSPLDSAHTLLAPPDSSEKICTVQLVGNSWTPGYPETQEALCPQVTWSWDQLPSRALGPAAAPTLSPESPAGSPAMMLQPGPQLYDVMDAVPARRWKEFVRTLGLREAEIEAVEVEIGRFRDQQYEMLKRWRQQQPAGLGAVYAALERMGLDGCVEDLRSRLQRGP
Experimental: Human CD4-positive T cells were purified from Buffy coats using CD4 Rosettesep (Stem cell technologies) and Histopaque (Sigma). T cells were stimulated with CD3/CD28 Dynabeads (Invitrogen) at a 1:1 ratio for 4 days in T75 flask at 2 mio CD4 T cells/ml in RPMI supplemented with 10% fcs. Beads were removed using a magnet, and cells were washed twice before titrating in antibodies on 500.000 cells/staining. Binding saturation was measured after incubation with goat-anti-mouse phycoerythrin (Jackson ImmunoResearch) and cells were subsequently analysed by flow cytometry on a BD LSRII. All antibodies reached saturation at 3 μg/ml.

[2] = biological target: T2, human DR3 (full length, on cells); experiment: flow cytometry on IL-12/IL-18/TL1A activated CD4+ T cells, 1 µg/ml
Experimental: (§1) Buffy Coats were obtained from normal healthy volunteers from Copenhagen University Hospital. CD4+ T cells were isolated through magnetic bead separation. Cells were activated with 2 ng/ml IL-12, 50 ng/ml IL-18 and 100 ng/ml TL1A (Flag-HIS-TEV-TL1A-produced at Novo Nordisk A/S) and cultured for 5 days. On day 5 cells were stained with 10, 5, 1, 0.5, 0.1 or 0.0001 μg/ml of the anti-DR3 mAb clones 0072, 0073, or 0077, or with Fab fragment clones 0087, 0088 and 0091. A secondary PE conjugated goat-anti-mouse (H+L) was used for detection.
as §1, with “Material and Methods: Buffy” for “Buffy”, “Copenhagen” for “Copenhagen University”, “0088 or” for “0088 and”, “detection. Samples were in duplicate. Staining intensity was evaluated by FACS.” for “detection.”

[3] = biological target: T2, human DR3 (full length, on cells); experiment: as above; remark: listed apart in the source
Experimental: as §1
The greater observed MFI values of IgG treated compared with Fab treated cells was expected since the secondary (detecting) antibody (anti-IgG heavy and light chain) bound to both Fab and Fc parts of the full-length IgG antibody clones, but only to Fab parts of Fab clones (Table 9).

[4] = biological target: T2, human DR3 (full length, on cells); experiment: cell-based or functional assay
[5] = biological target: T2, human DR3 (full length, on cells); experiment: cell-based or functional assay; remark: listed apart in the source

binding result (DR3 (ECD)-Fc): binds
B1: 0163 (chimeric Fab of 45F187, human IgG4 constant domain, hinge Cys->Ser) (Fab, V domains shown)
VH: EVQLVESGGGLVQPGGSLRLSCATSGFTFTNYYMAWVRKPPGKTLEWLGFMRNIVNGYTTDYSGSVEGRFTISRDNSQSILYLQMNALRPEDSATYYCARDIGYRYDGGGYGLDYWGQGTSVTVSS
VL: DIQMTQSPASLSASVGETVTLTCRASGNIHNYLTWYQQKQGKSPQLLVYNVKTLADGVSSRFSGSGSGTQFSLKINSLQPEDFGSYYCQHFWTTPYTFGGGTKLEIRR
notes: IgG4-Ser, chimeric; also called 0150

Median Fluorescent Intensity [1]: 2840 | Staining index (MFI Ab/MFI Isotype) [1]: 12.8 | saturation concentration [1]: 3 µg/mL | MFI [2]: 1300 MFI | MFI [3]: 1300 MFI | fold response, DR3 reporter, 40 ng/ml TL1A + 0.1 microg/ml [4]: 24.2 fold | fold response, DR3 reporter, 40 ng/ml TL1A + 1 microg/ml [4]: 27.9 fold | fold response, DR3 reporter, 40 ng/ml TL1A + 10 microg/ml [4]: 25.5 fold | fold response, DR3 reporter, 40 ng/ml TL1A + 100 microg/ml [4]: 19 fold | fold response, DR3 reporter, no TL1A, 0.1 microg/ml [4]: 12.8 fold | fold response, DR3 reporter, no TL1A, 1 microg/ml [4]: 14.4 fold | fold response, DR3 reporter, no TL1A, 10 microg/ml [4]: 12.8 fold | fold response, DR3 reporter, no TL1A, 100 microg/ml [4]: 6.9 fold
B2: 0073 (murine mAb purified from hybridoma 28F26A3) (antibody, V domains shown)
VH: EVKVVESGGGLVKPGGSLKLSCAASGFVFSSYDMSWVRQIPEKRLEWVAAISSGDYYTYYPDSVKGRFTISRDDARNTLYLQMSSLRSEDTALYYCARHRGGNYPQYAMDYWGQGTSVTVSS
VL: DILLTQSPASFAVSLGQRATISCRASKSVSTSGYNYIHWYQQKPGQPPKLLIYLTSNLESGVPARFSGSGSGTDFTLNIHPVEEEDAATYYCQHSRELPFTFGSGTKLEIKR
notes: murine IgG2a, kappa; also called 0085

fold response, DR3 reporter, 40 ng/ml TL1A + 0.1 microg/ml [5]: 15.2 fold | fold response, DR3 reporter, 40 ng/ml TL1A + 1 microg/ml [5]: 6.3 fold | fold response, DR3 reporter, 40 ng/ml TL1A + 10 microg/ml [5]: 2.9 fold | fold response, DR3 reporter, 40 ng/ml TL1A + 100 microg/ml [5]: 2.8 fold | fold response, DR3 reporter, no TL1A, 0.1 microg/ml [5]: 1.1 fold | fold response, DR3 reporter, no TL1A, 1 microg/ml [5]: 1.1 fold | fold response, DR3 reporter, no TL1A, 10 microg/ml [5]: 1.1 fold | fold response, DR3 reporter, no TL1A, 100 microg/ml [5]: 1 fold | MFI [2]: 500 MFI | MFI [3]: 500 MFI
B3: 0088 (Fab from papain cleavage of mAb 0073) (Fab, V domains shown)
VH: B2 VH
VL: B2 VL
notes: murine IgG2a Fab by papain cleavage
